Experimental data reported in the supplement of paper PMC10567573.
± gives the standard deviation.

Assay: protein stability index of a GFP-peptide fusion (GPS, HEK-293T) (PSI 1-6); higher = more stable
[1] = treatment: DMSO, c terminus: a fixed tail appended
[2] = treatment: MLN4924 1 uM, 8 h, c terminus: a fixed tail appended
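Note: 24-mer peptide tiles fused after GFP, lentivirally expressed, FACS-sorted into six equal bins by GFP/DsRed ratio, decoded by Illumina sequencing, PSI is the read-weighted mean bin number.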

Sequence	protein stability index [1]	protein stability index [2]	protein stability index (treatment: DMSO, c terminus: native)	protein stability index (treatment: MLN4924 1 uM, 8 h, c terminus: native)
HRRRSRERGPYRTRKHAHHCHKRR [CLK3]	4.49 ± 0.31	4.57 ± 0.25	–	–
HRWPPVWYLKEEDHYQRVKREREK [RHOBTB1]	3.75 ± 0.34	4.03 ± 0.28	–	–
HSCVQIKNDVFICGGYNGEVILGD [KLHDC10]	1.94 ± 0.27	2.62 ± 0.42	–	–
HSRVAKPHQREKIDKEIELHRILH [PLK2]	3.42 ± 0.4	3.44 ± 0.07	–	–
HSVLQGFIPLFQKFRLTGFRKTD [TMEM40]	–	–	2.69 ± 0.62	2.69 ± 0.43
HTEVVRDLTFAPDGSLILVSASRD [WSB1]	3.45 ± 0.054	3.53 ± 0.27	–	–
HTKRLYRAVVEAVHRLDLILCNKT [SMG5]	2.77 ± 0.36	2.82 ± 0.65	–	–
HVLEGLFRTDPEAKVKLVFVEDQA [ZSWIM9]	2.51 ± 0.19	2.74 ± 0.24	–	–
HVQKLSQECLKQLAIKKQQHIDNI [TRIM14]	3.81 ± 0.36	3.75 ± 0.12	–	–
HVTDPLIGCKKPVSASGKEMDWAQ [SMG5]	3.78 ± 0.18	4.04 ± 0.24	–	–
HVTVVILFFVPCIFLYARPNSTFP [OR4A15]	2.83 ± 0.9	2.77 ± 0.51	–	–
IAKHLKGRLGKQCRERWHNHLNPE [MYBL2]	2.25 ± 0.21	2.23 ± 0.13	–	–
ICKEVQAEQEPTRKLFEVESVTHH [SPAG8]	4.47 ± 0.12	4.77 ± 0.07	–	–
IDCKFNAESQGCNHEEDAGVRCNT [LOXL2]	5.13 ± 0.22	5.22 ± 0.1	–	–
IDFIGQVHKTKEQFGQDGPISVHC [PTPRD]	2.5 ± 0.26	2.81 ± 0.22	–	–
IDGKGRGVIATKQFSRGDFVVEYH [KMT5A]	2.91 ± 0.26	3.03 ± 0.35	–	–
IDYYTETKILQERAVLGANDPEKN [NSDHL]	4.76 ± 0.22	5.02 ± 0.46	–	–
IEFNPRIGKWFDFKLFFNGRPGIV [DHCR7]	2.63 ± 0.44	2.91 ± 0.91	–	–
IGVILFSSAVYFAEADEPTTHFQS [KCNA4]	2.36 ± 0.58	2.69 ± 1	–	–
IHDLDLTLLNPRMIVDVTPYMNPS [CLCN6]	2.29 ± 0.19	2.26 ± 0.25	–	–
IHLSAPCIYSEVMEALKLQPGLSF [PCMTD1]	2.33 ± 0.67	2.61 ± 0.34	–	–
IIKQLQKGVQQKRPSEAQSVILRR [DENND6A]	3.08 ± 0.2	2.9 ± 0.14	–	–

Sequence	protein stability index [1]	protein stability index [2]	protein stability index (treatment: DMSO, c terminus: native)	protein stability index (treatment: MLN4924 1 uM, 8 h, c terminus: native)
IKEEENSEEELAAATTSKEQEPIG [MYBL2]	5.7 ± 0.31	5.72 ± 0.21	–	–
IKEVIFMSDKYHDSDEATAARLLF [DCTD]	2.57 ± 0.27	2.62 ± 0.32	–	–
IKRGDILPPEKGREVAKELGLPYY [RHOBTB1]	3.2 ± 0.22	3.37 ± 0.39	–	–
IKTAVNLPLERDAESFLLKSPIAP [CDC25B]	3.23 ± 0.24	3.14 ± 0.36	–	–
ILAIIAKEGDCAPEEKIWEELSVL [MAGEA6]	2.44 ± 0.26	2.48 ± 0.43	–	–
ILGRGLQEYQLPYQRVLPLPIFTP [TCAP]	2.25 ± 0.21	2.37 ± 0.12	–	–
ILHIMVKVVKGHRPELPPVCRARP [RIPK4]	3.35 ± 0.92	2.4 ± 0.36	–	–
ILKLEQENCTLVTTFRGHTGGVTA [WDFY2]	2.79 ± 0.13	3.51 ± 0.5	–	–
ILKRLLKEQHLWDVDLLDSKVIEI [DLC1]	2.44 ± 1	2.02 ± 0.68	–	–
ILNSMNSLRKSNTLCDVTLRVEQK [KLHL12]	2.65 ± 0.18	2.9 ± 0.33	–	–
ILQLEECCTHNNSATLSWKQPPLS [TRIM9]	2.67 ± 0.42	2.78 ± 0.23	–	–
INCKGRSKSNLGWTPLHLACYFGH [OSBPL1A]	2.63 ± 0.32	2.28 ± 0.32	–	–
INQLTFIMDANQTYLVSERLEREE [FAF2]	3.17 ± 0.15	3.15 ± 0.21	–	–
INRLVGLQNTYMGYLDYRKKAIKD [GLT8D2]	2.7 ± 0.3	3.01 ± 0.05	–	–
INSRRWCSNLTPNVPNVCRMYCSD [SPACA3]	2.13 ± 0.26	2.42 ± 0.33	–	–
IPANVSNCNWFCEGSFNGSEKETM [KRT33B]	4.19 ± 0.15	4.07 ± 0.3	–	–
IPPYSRASLKGYQWLKDKILSEEG [KCNAB2]	2.64 ± 0.45	3.02 ± 0.54	–	–
IQGNIEYSCPATNECEITKRRRKS [ESRRG]	4.85 ± 0.15	5.13 ± 0.25	–	–
IQSKDGKSPLHMTAVHGRFTRSQT [ANKRD44]	3.84 ± 0.32	3.9 ± 0.36	–	–
IREQIKKYRRHFLRFCHNNKKAKR [EIF5]	2.35 ± 0.19	2.33 ± 0.16	–	–
IRLCDMRASALCDRHTKFFEEPED [PPP2R2B]	3.59 ± 0.11	3.77 ± 0.2	–	–
ISDRYSPELRQLVLSLLSLEPAQR [NEK8]	2.66 ± 0.38	2.3 ± 0.39	–	–

Sequence	protein stability index [1]	protein stability index [2]	protein stability index (treatment: DMSO, c terminus: native)	protein stability index (treatment: MLN4924 1 uM, 8 h, c terminus: native)
ISKMEPLEIPVETITSEVIEKCTT [CRY1]	4.08 ± 0.64	4.32 ± 0.2	–	–
ISLVKREHDFLDRDAIEALCRRLN [DLC1]	2.69 ± 0.18	2.8 ± 0.42	–	–
ITALLNVSRRTSEACMTHLHYKWI [DUSP5]	2.75 ± 0.53	2.54 ± 0.32	–	–
ITAPTEVEVMDETNCQKVLNMWCC [CSNK1G3]	2.84 ± 0.29	2.98 ± 0.29	–	–
ITNQEELWKMKPRRNLEEDDYLHK [STEAP1]	4.22 ± 0.41	4.02 ± 0.26	–	–
ITTLRVPVLRPMDLMVEATPRRVF [PPP2R2B]	2.52 ± 0.17	2.71 ± 0.27	–	–
IVCAQSSQSLWNRLSVLLNLLPAA [SMG5]	2.8 ± 0.31	2.99 ± 0.28	–	–
IVETLCIIWFSFELVVRFFACPSK [KCNA1]	3.11 ± 0.19	3.15 ± 0.32	–	–
IVRLRTIGELLAPAAPFDKKCGRE [WSB1]	2.64 ± 0.2	2.85 ± 0.34	–	–
IVRRRSRDVPESPQHAADTPKSGE [YJU2B]	5.06 ± 0.25	5.21 ± 0.22	–	–
IVSNFNYFYHRETENEEQTQLTQN [KCNA4]	3.03 ± 0.12	3.38 ± 0.25	–	–
IVSQKQIADRAAHDESPGNNVVDI [RAB11B]	5.16 ± 0.12	5.12 ± 0.1	–	–
IWDINNQICTVKDIKAEPQPLSPA [ATF6]	3.96 ± 0.21	4.1 ± 0.24	–	–
IYVKLIEECTDLQKEGEFSTCFTE [OAS1]	2.37 ± 0.2	2.26 ± 0.28	–	–
KCGIHSMFPLHLAALNAHSDCCRK [ANKRD44]	2.36 ± 0.2	2.62 ± 0.33	–	–
KCLQGNADGDGGGGQCCRRQDSPS [PCDHGC5]	5.25 ± 0.29	5.21 ± 0.1	–	–
KDILGFAVMFFIVFFAYAQLGYLL [PKD2L1]	2.81 ± 0.42	2.93 ± 0.54	–	–
KDREYTDIIRKQVLGTKVDAERDG [CDC34]	5.08 ± 0.21	4.99 ± 0.18	–	–
KDTVICAMKITQEPQGLGYWEAWR [SPACA3]	2.27 ± 0.49	2.22 ± 0.23	–	–
KDVKERFSGSLVAALSATGPRFLA [TMEM175]	2.88 ± 0.55	2.73 ± 0.68	–	–
KEAVAALPPDVTTQSVMGFDPLPP [TCF25]	4.79 ± 0.29	4.89 ± 0.26	–	–
